Test results: article PMC12866175 (European journal of nuclear medicine and molecular imaging, 2021)

Assay: Radiation dosimetry and clearance kinetics from biodistribution data
Assay type: in vivo, BALB/c mice

In the case of `C[C@@H](O)[C@H](NC(=O)[C@@H]1CSSC[C@H](NC(=O)[C@@H](Cc2ccccc2)NC(=O)CN2CCN(CC(=O)O)CCN(CC(=O)O)CCN(CC(=O)O)CC2)C(=O)N[C@@H](Cc2ccc(O)cc2)C(=O)N[C@H](Cc2c[nH]c3ccccc23)C(=O)N[C@@H](CCCCN)C(=O)N[C@@H]([C@@H](C)O)C(=O)N1)C(=O)O` [[^225Ac]Ac-DOTA-TATE, metal not drawn], the Absorbed dose/injected activity (^213Bi, Blood) is reported as 0.0000 Gy/kBq, the “Accumulated activity/organ, A~” value (^213Bi, Blood) is reported as 0.2345 kBq×h and the “Decay rate constant, λeff” value (^213Bi, Blood) is reported as 0.011 h⁻¹. The “Initial activity/organ, A○” value (^213Bi, Blood) was 0.0042 kBq, the Absorbed dose/injected activity (^213Bi, Bone) was 0.0000 Gy/kBq and the “Accumulated activity/organ, A~” value (^213Bi, Bone) was 0.9591 kBq×h. For the same compound, the “Decay rate constant, λeff” value (^213Bi, Bone) was 0.0070 h⁻¹, the “Initial activity/organ, A○” value (^213Bi, Bone) was 0.0125 kBq and the Absorbed dose/injected activity (^213Bi, Brain) was 0.0000 Gy/kBq. For the same compound, the “Accumulated activity/organ, A~” value (^213Bi, Brain) was 0.4653 kBq×h, the “Decay rate constant, λeff” value (^213Bi, Brain) was 0.0080 h⁻¹ and the “Initial activity/organ, A○” value (^213Bi, Brain) was 0.0066 kBq. For the same compound, the Absorbed dose/injected activity (^213Bi, Heart) was 0.0000 Gy/kBq, the “Accumulated activity/organ, A~” value (^213Bi, Heart) was 0.5789 kBq×h and the “Decay rate constant, λeff” value (^213Bi, Heart) was 0.0030 h⁻¹. The “Initial activity/organ, A○” value (^213Bi, Heart) was 0.0053 kBq, the Absorbed dose/injected activity (^213Bi, Intestine) was 0.0000 Gy/kBq and the “Accumulated activity/organ, A~” value (^213Bi, Intestine) was 3.6681 kBq×h. The “Decay rate constant, λeff” value (^213Bi, Intestine) was 0.0210 h⁻¹, the “Initial activity/organ, A○” value (^213Bi, Intestine) was 0.1340 kBq and the Absorbed dose/injected activity (^213Bi, Kidney) was 0.0000 Gy/kBq. The “Accumulated activity/organ, A~” value (^213Bi, Kidney) was 7.7700 kBq×h, the “Decay rate constant, λeff” value (^213Bi, Kidney) was 0.0250 h⁻¹ and the “Initial activity/organ, A○” value (^213Bi, Kidney) was 0.3639 kBq. The Absorbed dose/injected activity (^213Bi, Liver) was 0.0000 Gy/kBq, the “Accumulated activity/organ, A~” value (^213Bi, Liver) was 28.7854 kBq×h and the “Decay rate constant, λeff” value (^213Bi, Liver) was -0.0073 h⁻¹. For the same compound, the “Initial activity/organ, A○” value (^213Bi, Liver) was 0.0948 kBq, the Absorbed dose/injected activity (^213Bi, Lung) was 0.0000 Gy/kBq and the “Accumulated activity/organ, A~” value (^213Bi, Lung) was 0.9636 kBq×h. For the same compound, the “Decay rate constant, λeff” value (^213Bi, Lung) was 0.0170 h⁻¹, the “Initial activity/organ, A○” value (^213Bi, Lung) was 0.0270 kBq and the Absorbed dose/injected activity (^213Bi, Muscle) was 0.0000 Gy/kBq. The “Accumulated activity/organ, A~” value (^213Bi, Muscle) was 0.3058 kBq×h, the “Decay rate constant, λeff” value (^213Bi, Muscle) was 0.0050 h⁻¹ and the “Initial activity/organ, A○” value (^213Bi, Muscle) was 0.0034 kBq. For the same compound, the Absorbed dose/injected activity (^213Bi, Pancreas) was 0.0000 Gy/kBq, the “Accumulated activity/organ, A~” value (^213Bi, Pancreas) was 0.5253 kBq×h and the “Decay rate constant, λeff” value (^213Bi, Pancreas) was 0.0140 h⁻¹. The “Initial activity/organ, A○” value (^213Bi, Pancreas) was 0.0119 kBq, the Absorbed dose/injected activity (^213Bi, Salivary) was 0.000 Gy/kBq and the “Accumulated activity/organ, A~” value (^213Bi, Salivary) was 0.6047 kBq×h. The “Decay rate constant, λeff” value (^213Bi, Salivary) was 0.0030 h⁻¹, the “Initial activity/organ, A○” value (^213Bi, Salivary) was 0.0056 kBq and the Absorbed dose/injected activity (^213Bi, Skin) was 0.000 Gy/kBq. The “Accumulated activity/organ, A~” value (^213Bi, Skin) was 0.5575 kBq×h, the “Decay rate constant, λeff” value (^213Bi, Skin) was 0.0040 h⁻¹ and the “Initial activity/organ, A○” value (^213Bi, Skin) was 0.0056 kBq. For the same compound, the Absorbed dose/injected activity (^213Bi, Spleen) was 0.0000 Gy/kBq, the “Accumulated activity/organ, A~” value (^213Bi, Spleen) was 1.2470 kBq×h and the “Decay rate constant, λeff” value (^213Bi, Spleen) was -0.0024 h⁻¹. For the same compound, the “Initial activity/organ, A○” value (^213Bi, Spleen) was 0.0068 kBq, the Absorbed dose/injected activity (^213Bi, Stomach) was 0.0000 Gy/kBq and the “Accumulated activity/organ, A~” value (^213Bi, Stomach) was 2.4230 kBq×h. The “Decay rate constant, λeff” value (^213Bi, Stomach) was 0.0190 h⁻¹, the “Initial activity/organ, A○” value (^213Bi, Stomach) was 0.0777 kBq and the Absorbed dose/injected activity (^213Po, Blood) was 0.0000 Gy/kBq. The “Accumulated activity/organ, A~” value (^213Po, Blood) was 0.2345 kBq×h, the “Decay rate constant, λeff” value (^213Po, Blood) was 0.0110 h⁻¹ and the “Initial activity/organ, A○” value (^213Po, Blood) was 0.0042 kBq. For the same compound, the Absorbed dose/injected activity (^213Po, Bone) was 0.0004 Gy/kBq, the “Accumulated activity/organ, A~” value (^213Po, Bone) was 0.9591 kBq×h and the “Decay rate constant, λeff” value (^213Po, Bone) was 0.0070 h⁻¹. The “Initial activity/organ, A○” value (^213Po, Bone) was 0.0125 kBq, the Absorbed dose/injected activity (^213Po, Brain) was 0.0001 Gy/kBq and the “Accumulated activity/organ, A~” value (^213Po, Brain) was 0.4653 kBq×h. For the same compound, the “Decay rate constant, λeff” value (^213Po, Brain) was 0.0080 h⁻¹, the “Initial activity/organ, A○” value (^213Po, Brain) was 0.0066 kBq and the Absorbed dose/injected activity (^213Po, Heart) was 0.0002 Gy/kBq. The “Accumulated activity/organ, A~” value (^213Po, Heart) was 0.5789 kBq×h, the “Decay rate constant, λeff” value (^213Po, Heart) was 0.0030 h⁻¹ and the “Initial activity/organ, A○” value (^213Po, Heart) was 0.0053 kBq. The Absorbed dose/injected activity (^213Po, Intestine) was 0.0001 Gy/kBq, the “Accumulated activity/organ, A~” value (^213Po, Intestine) was 3.6681 kBq×h and the “Decay rate constant, λeff” value (^213Po, Intestine) was 0.0210 h⁻¹. The “Initial activity/organ, A○” value (^213Po, Intestine) was 0.1340 kBq, the Absorbed dose/injected activity (^213Po, Kidney) was 0.0015 Gy/kBq and the “Accumulated activity/organ, A~” value (^213Po, Kidney) was 7.7700 kBq×h. For the same compound, the “Decay rate constant, λeff” value (^213Po, Kidney) was 0.0250 h⁻¹, the “Initial activity/organ, A○” value (^213Po, Kidney) was 0.3639 kBq and the Absorbed dose/injected activity (^213Po, Liver) was 0.0016 Gy/kBq. For the same compound, the “Accumulated activity/organ, A~” value (^213Po, Liver) was 28.7854 kBq×h, the “Decay rate constant, λeff” value (^213Po, Liver) was -0.0073 h⁻¹ and the “Initial activity/organ, A○” value (^213Po, Liver) was 0.0948 kBq. The Absorbed dose/injected activity (^213Po, Lung) was 0.0002 Gy/kBq, the “Accumulated activity/organ, A~” value (^213Po, Lung) was 0.9636 kBq×h and the “Decay rate constant, λeff” value (^213Po, Lung) was 0.0170 h⁻¹. The “Initial activity/organ, A○” value (^213Po, Lung) was 0.0270 kBq, the Absorbed dose/injected activity (^213Po, Muscle) was 0.0001 Gy/kBq and the “Accumulated activity/organ, A~” value (^213Po, Muscle) was 0.3058 kBq×h. For the same compound, the “Decay rate constant, λeff” value (^213Po, Muscle) was 0.0050 h⁻¹, the “Initial activity/organ, A○” value (^213Po, Muscle) was 0.0034 kBq and the Absorbed dose/injected activity (^213Po, Pancreas) was 0.0002 Gy/kBq. The “Accumulated activity/organ, A~” value (^213Po, Pancreas) was 0.5253 kBq×h, the “Decay rate constant, λeff” value (^213Po, Pancreas) was 0.0140 h⁻¹ and the “Initial activity/organ, A○” value (^213Po, Pancreas) was 0.0119 kBq. For the same compound, the Absorbed dose/injected activity (^213Po, Salivary) was 0.0002 Gy/kBq, the “Accumulated activity/organ, A~” value (^213Po, Salivary) was 0.6047 kBq×h and the “Decay rate constant, λeff” value (^213Po, Salivary) was 0.0030 h⁻¹. For the same compound, the “Initial activity/organ, A○” value (^213Po, Salivary) was 0.0056 kBq, the Absorbed dose/injected activity (^213Po, Skin) was 0.0001 Gy/kBq and the “Accumulated activity/organ, A~” value (^213Po, Skin) was 0.5575 kBq×h. For the same compound, the “Decay rate constant, λeff” value (^213Po, Skin) was 0.0040 h⁻¹, the “Initial activity/organ, A○” value (^213Po, Skin) was 0.0056 kBq and the Absorbed dose/injected activity (^213Po, Spleen) was 0.0006 Gy/kBq. The “Accumulated activity/organ, A~” value (^213Po, Spleen) was 1.2470 kBq×h, the “Decay rate constant, λeff” value (^213Po, Spleen) was -0.0024 h⁻¹ and the “Initial activity/organ, A○” value (^213Po, Spleen) was 0.0068 kBq. The Absorbed dose/injected activity (^213Po, Stomach) was 0.0005 Gy/kBq, the “Accumulated activity/organ, A~” value (^213Po, Stomach) was 2.4230 kBq×h and the “Decay rate constant, λeff” value (^213Po, Stomach) was 0.0190 h⁻¹. The “Initial activity/organ, A○” value (^213Po, Stomach) was 0.0777 kBq, the Absorbed dose/injected activity (^217At, Blood) was 0.001 Gy/kBq and the “Accumulated activity/organ, A~” value (^217At, Blood) was 0.5594 kBq×h. The “Initial activity/organ, A○” value (^217At, Blood) was 0.0019 kBq, the Absorbed dose/injected activity (^217At, Bone) was 0.0003 Gy/kBq and the “Accumulated activity/organ, A~” value (^217At, Bone) was 1.0195 kBq×h. The “Decay rate constant, λeff” value (^217At, Bone) was 0.0100 h⁻¹, the “Initial activity/organ, A○” value (^217At, Bone) was 0.0170 kBq and the Absorbed dose/injected activity (^217At, Brain) was 0.0001 Gy/kBq. For the same compound, the “Accumulated activity/organ, A~” value (^217At, Brain) was 0.7934 kBq×h, the “Decay rate constant, λeff” value (^217At, Brain) was -0.0044 h⁻¹ and the “Initial activity/organ, A○” value (^217At, Brain) was 0.0036 kBq. For the same compound, the Absorbed dose/injected activity (^217At, Heart) was 0.00001 Gy/kBq, the “Accumulated activity/organ, A~” value (^217At, Heart) was 0.2102 kBq×h and the “Decay rate constant, λeff” value (^217At, Heart) was 0.0190 h⁻¹. The “Initial activity/organ, A○” value (^217At, Heart) was 0.0067 kBq, the Absorbed dose/injected activity (^217At, Intestine) was 0.0002 Gy/kBq and the “Accumulated activity/organ, A~” value (^217At, Intestine) was 7.2991 kBq×h. The “Decay rate constant, λeff” value (^217At, Intestine) was 0.0130 h⁻¹, the “Initial activity/organ, A○” value (^217At, Intestine) was 0.1532 kBq and the Absorbed dose/injected activity (^217At, Kidney) was 0.0021 Gy/kBq. The “Accumulated activity/organ, A~” value (^217At, Kidney) was 12.5136 kBq×h, the “Decay rate constant, λeff” value (^217At, Kidney) was 0.0190 h⁻¹ and the “Initial activity/organ, A○” value (^217At, Kidney) was 0.4011 kBq. The Absorbed dose/injected activity (^217At, Liver) was 0.0016 Gy/kBq, the “Accumulated activity/organ, A~” value (^217At, Liver) was 32.1637 kBq×h and the “Decay rate constant, λeff” value (^217At, Liver) was -0.0033 h⁻¹. For the same compound, the “Initial activity/organ, A○” value (^217At, Liver) was 0.1612 kBq, the “Accumulated activity/organ, A~” value (^217At, Lung) was 1.7734 kBq×h and the “Decay rate constant, λeff” value (^217At, Lung) was 0.0080 h⁻¹. For the same compound, the “Initial activity/organ, A○” value (^217At, Lung) was 0.251 kBq, the Absorbed dose/injected activity (^217At, Muscle) was 0.00000 Gy/kBq and the “Accumulated activity/organ, A~” value (^217At, Muscle) was 0.1848 kBq×h. The “Decay rate constant, λeff” value (^217At, Muscle) was 0.0170 h⁻¹.
